Target: CD58 extracellular domain (human) (UniProt P19256)
UniProt P19256, sequence (P19256 29-215): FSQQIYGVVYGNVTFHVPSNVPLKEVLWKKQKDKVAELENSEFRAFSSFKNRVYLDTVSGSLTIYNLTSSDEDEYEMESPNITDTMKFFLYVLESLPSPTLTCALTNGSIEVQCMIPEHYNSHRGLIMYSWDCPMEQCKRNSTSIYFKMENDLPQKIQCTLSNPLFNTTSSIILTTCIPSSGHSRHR

glycocalyx exclusion on the SLB2 (reduction in fluorescence, contact tightness) in regions of CD58 accumulation under J8-GECI cells, against 20% in regions of ICAM-1 accumulation: 45%
Substance: CD2 (from UniProt P06729 25-351) (receptor)
